Laboratory results: publication PMC10580935

Assays:
Experiment in all cases: EMSA
Settings in all cases: 20 mM Tris-HCl pH 8.0, 1 mM DTT, 50 mM KCl, 5 mM MgCl2, 0.05 mg/mL BSA, 10% glycerol
[1] = biological target: T1, IdeR (Mycobacterium bovis BCG) (UniProt P9WMH1)
T1 sequence: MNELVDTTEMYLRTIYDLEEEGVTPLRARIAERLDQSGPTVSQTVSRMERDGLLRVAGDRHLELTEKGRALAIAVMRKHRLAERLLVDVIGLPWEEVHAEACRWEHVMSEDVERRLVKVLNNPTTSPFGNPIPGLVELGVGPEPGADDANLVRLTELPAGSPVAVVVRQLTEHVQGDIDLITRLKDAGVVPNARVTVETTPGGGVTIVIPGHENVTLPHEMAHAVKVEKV

[2] = biological target: T2, IdeR;Zur (Mycobacterium bovis BCG;Mycobacterium bovis BCG) (UniProt P9WMH1+P9WN85)
T2 sequence 1: T1 sequence
T2 sequence 2: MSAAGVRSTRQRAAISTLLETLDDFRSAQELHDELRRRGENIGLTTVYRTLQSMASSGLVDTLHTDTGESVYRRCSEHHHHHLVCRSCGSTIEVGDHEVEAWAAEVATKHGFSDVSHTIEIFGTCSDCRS

[3] = biological target: T3, Zur (Mycobacterium bovis BCG) (UniProt P9WN85)
T3 sequence: T2 sequence 2

“ACGTCAGCGTCTACCTTGCCATTTACCCGAGACGCGACGGGGGAAGCGGCCACCATGCCAATGTCATCACGCTCCACGCCTCCGCTGTCTCCTTCACCTACGCCCGCCATCGGCCGATCCGCCTGAACTTTGCCCCGAAGTTAGCATTGCATAAGCTAACTGTCGAGGCGACCGCGACCAATCGACTCGGCCCTGCGGCCAAGCTTTTAGGCACGGCTGGCAAGATCATGACCGATACTCCATTTCGTTGGTAGCCCGATATGCAGAGTGTAG (double strand) [esx-3p2]” was tested, and the binding [1] was “binds”, the binding [2] was “binds” and the binding [3] was “no binding”.
